Targets include Cx40CT (S251-V355); Cx43CT (S255-I382) (UniProt P08050); Cx45CT (K265-I396) (UniProt P28229).
Assay in all cases: NMR titration

pKd: −log10 of the molar value.

The term pKd denotes the negative decadic logarithm of the Kd, by convention in mol/L. Read a high pKd as a small Kd.

UniProt P08050, sequence (P08050 255-382): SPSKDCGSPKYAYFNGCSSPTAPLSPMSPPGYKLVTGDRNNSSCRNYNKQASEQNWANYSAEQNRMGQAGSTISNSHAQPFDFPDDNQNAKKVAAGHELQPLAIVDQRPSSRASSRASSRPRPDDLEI
UniProt P28229, sequence (P28229 265-396): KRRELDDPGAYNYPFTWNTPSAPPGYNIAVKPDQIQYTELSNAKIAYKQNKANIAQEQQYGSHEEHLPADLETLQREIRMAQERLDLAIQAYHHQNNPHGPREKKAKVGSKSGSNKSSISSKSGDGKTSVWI

For the substance “UBA domain of CIP75 (M549-S596) (from UniProt Q99NB8 549-596) (domain or fragment)”, the results for the pKd with Cx40CT (S251-V355), with Cx43CT (S255-I382) and with Cx45CT (K265-I396) were 3.22, 3.56 and 3.54, respectively.
